The term stoichiometry N denotes a count of units in the complex or per binding partner.

Data set [1] has as its target T1, AtSULTR4;1 ΔSTAS (Arabidopsis thaliana, UniProt Q9FY46).
T1 construct: gene SULTR4; STAS domain (residues 503-685) truncated, transmembrane domain only, C-terminal His6-tag cleaved by TEV, High Five insect cells, monomeric by SEC
T1 sequence (Q9FY46 1-502): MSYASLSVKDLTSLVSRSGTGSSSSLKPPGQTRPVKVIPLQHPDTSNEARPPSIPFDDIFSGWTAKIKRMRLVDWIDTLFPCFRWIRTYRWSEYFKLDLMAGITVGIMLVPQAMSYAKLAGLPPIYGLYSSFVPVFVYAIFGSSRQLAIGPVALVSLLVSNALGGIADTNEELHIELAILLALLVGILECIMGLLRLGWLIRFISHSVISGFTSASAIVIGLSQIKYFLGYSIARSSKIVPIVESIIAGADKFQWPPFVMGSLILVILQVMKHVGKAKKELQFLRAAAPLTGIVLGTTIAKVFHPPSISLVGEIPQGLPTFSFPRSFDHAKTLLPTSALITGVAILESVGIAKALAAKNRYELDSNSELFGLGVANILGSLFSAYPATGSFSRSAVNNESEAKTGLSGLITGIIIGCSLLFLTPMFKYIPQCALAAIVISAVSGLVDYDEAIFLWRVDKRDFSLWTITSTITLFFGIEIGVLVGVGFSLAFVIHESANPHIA
Put plainly: […]SO4 uptake into proteoliposomes, […] min. Type of data set: biochemical. The following applies: 13.3 µM 35SO4, pH 7.5 inside / 5.5 outside; labelled compound.

Data set [2] concerns the molecule itself. Put plainly: cryo-EM structure; AtSULTR4;1 in GDN, 20 mM MES pH 6.0, 150 mM Na2SO4, 5 mM BME; refined with C2 symmetry; overall resolution 2.8 Å.
Data set [3] concerns the molecule itself. The data set can be described thus: SEC; purified protein on SRT-3C SEC-300 column, 20 mM HEPES, 150 mM NaCl, 5 mM BME, 0.01% LMNG; elution profile compared with wild type. A general note: In gel filtration, larger molecules generally elute earlier.

As to `O=S(=O)(O)O` [SO4^2−], the “35SO4 uptake into proteoliposomes, 5 min” value in data set [1] was “ΔSTAS retains a lower level of transport activity”.

B1: Arabidopsis thaliana sulfate transporter SULTR4;1 (AtSULTR4;1), wild type (natural protein, UniProt Q9FY46 24-685, looked up)
chain: SSLKPPGQTRPVKVIPLQHPDTSNEARPPSIPFDDIFSGWTAKIKRMRLVDWIDTLFPCFRWIRTYRWSEYFKLDLMAGITVGIMLVPQAMSYAKLAGLPPIYGLYSSFVPVFVYAIFGSSRQLAIGPVALVSLLVSNALGGIADTNEELHIELAILLALLVGILECIMGLLRLGWLIRFISHSVISGFTSASAIVIGLSQIKYFLGYSIARSSKIVPIVESIIAGADKFQWPPFVMGSLILVILQVMKHVGKAKKELQFLRAAAPLTGIVLGTTIAKVFHPPSISLVGEIPQGLPTFSFPRSFDHAKTLLPTSALITGVAILESVGIAKALAAKNRYELDSNSELFGLGVANILGSLFSAYPATGSFSRSAVNNESEAKTGLSGLITGIIIGCSLLFLTPMFKYIPQCALAAIVISAVSGLVDYDEAIFLWRVDKRDFSLWTITSTITLFFGIEIGVLVGVGFSLAFVIHESANPHIAVLGRLPGTTVYRNIKQYPEAYTYNGIVIVRIDSPIYFANISYIKDRLREYEVAVDKYTNRGLEVDRINFVILEMSPVTHIDSSAVEALKELYQEYKTRDIQLAISNPNKDVHLTIARSGMVELVGKEWFFVRVHDAVQVCLQYVQSSNLEDKHLSFTRRYGGSNNNSSSSNALLKEPLLSVEK
notes: A. thaliana SULTR4;1, codon-optimized gene (NCBI NM_121358.3); residues 1-69 and 645-685 are called the N- and C-termini and were not resolved; the model holds residues 70-644; Homodimer in the cryo-EM structure; also called WT; source: High Five (Trichoplusia ni) insect cells, baculovirus; purified (LMNG solubilisation, Talon cobalt resin, SEC); not shown: His6, C-terminal, cleaved
Take B1: the “stoichiometry N” value in data set [2] was found to be 2.

B2: AtSULTR4;1 K353E (natural protein, Arabidopsis thaliana, UniProt Q9FY46 24-685, looked up)
chain: SSLKPPGQTRPVKVIPLQHPDTSNEARPPSIPFDDIFSGWTAKIKRMRLVDWIDTLFPCFRWIRTYRWSEYFKLDLMAGITVGIMLVPQAMSYAKLAGLPPIYGLYSSFVPVFVYAIFGSSRQLAIGPVALVSLLVSNALGGIADTNEELHIELAILLALLVGILECIMGLLRLGWLIRFISHSVISGFTSASAIVIGLSQIKYFLGYSIARSSKIVPIVESIIAGADKFQWPPFVMGSLILVILQVMKHVGKAKKELQFLRAAAPLTGIVLGTTIAKVFHPPSISLVGEIPQGLPTFSFPRSFDHAKTLLPTSALITGVAILESVGIAEALAAKNRYELDSNSELFGLGVANILGSLFSAYPATGSFSRSAVNNESEAKTGLSGLITGIIIGCSLLFLTPMFKYIPQCALAAIVISAVSGLVDYDEAIFLWRVDKRDFSLWTITSTITLFFGIEIGVLVGVGFSLAFVIHESANPHIAVLGRLPGTTVYRNIKQYPEAYTYNGIVIVRIDSPIYFANISYIKDRLREYEVAVDKYTNRGLEVDRINFVILEMSPVTHIDSSAVEALKELYQEYKTRDIQLAISNPNKDVHLTIARSGMVELVGKEWFFVRVHDAVQVCLQYVQSSNLEDKHLSFTRRYGGSNNNSSSSNALLKEPLLSVEK
notes: A. thaliana SULTR4;1 (NCBI NM_121358.3) with the charge-reversal mutation K353E on TM8 (core domain); Made by QuikChange on the wild-type construct; source: High Five insect cells, baculovirus; purified following the same protocol as wild type; not shown: His6, C-terminal, cleaved
Take B2: the binding result in data set [3] is reported as “binds”.

B3: AtSULTR4;1 D547R (natural protein, Arabidopsis thaliana, UniProt Q9FY46 24-685, looked up)
chain: SSLKPPGQTRPVKVIPLQHPDTSNEARPPSIPFDDIFSGWTAKIKRMRLVDWIDTLFPCFRWIRTYRWSEYFKLDLMAGITVGIMLVPQAMSYAKLAGLPPIYGLYSSFVPVFVYAIFGSSRQLAIGPVALVSLLVSNALGGIADTNEELHIELAILLALLVGILECIMGLLRLGWLIRFISHSVISGFTSASAIVIGLSQIKYFLGYSIARSSKIVPIVESIIAGADKFQWPPFVMGSLILVILQVMKHVGKAKKELQFLRAAAPLTGIVLGTTIAKVFHPPSISLVGEIPQGLPTFSFPRSFDHAKTLLPTSALITGVAILESVGIAKALAAKNRYELDSNSELFGLGVANILGSLFSAYPATGSFSRSAVNNESEAKTGLSGLITGIIIGCSLLFLTPMFKYIPQCALAAIVISAVSGLVDYDEAIFLWRVDKRDFSLWTITSTITLFFGIEIGVLVGVGFSLAFVIHESANPHIAVLGRLPGTTVYRNIKQYPEAYTYNGIVIVRIDSPIYFANISYIKRRLREYEVAVDKYTNRGLEVDRINFVILEMSPVTHIDSSAVEALKELYQEYKTRDIQLAISNPNKDVHLTIARSGMVELVGKEWFFVRVHDAVQVCLQYVQSSNLEDKHLSFTRRYGGSNNNSSSSNALLKEPLLSVEK
notes: A. thaliana SULTR4;1 (NCBI NM_121358.3) with the charge-reversal mutation D547R on helix alpha1 of the STAS domain; Made by QuikChange on the wild-type construct; source: High Five insect cells, baculovirus; purified following the same protocol as wild type; not shown: His6, C-terminal, cleaved
Regarding B3, the binding result in data set [3] was “binds”.

B4: AtSULTR4;1 R550E (natural protein, Arabidopsis thaliana, UniProt Q9FY46 24-685, looked up)
chain: SSLKPPGQTRPVKVIPLQHPDTSNEARPPSIPFDDIFSGWTAKIKRMRLVDWIDTLFPCFRWIRTYRWSEYFKLDLMAGITVGIMLVPQAMSYAKLAGLPPIYGLYSSFVPVFVYAIFGSSRQLAIGPVALVSLLVSNALGGIADTNEELHIELAILLALLVGILECIMGLLRLGWLIRFISHSVISGFTSASAIVIGLSQIKYFLGYSIARSSKIVPIVESIIAGADKFQWPPFVMGSLILVILQVMKHVGKAKKELQFLRAAAPLTGIVLGTTIAKVFHPPSISLVGEIPQGLPTFSFPRSFDHAKTLLPTSALITGVAILESVGIAKALAAKNRYELDSNSELFGLGVANILGSLFSAYPATGSFSRSAVNNESEAKTGLSGLITGIIIGCSLLFLTPMFKYIPQCALAAIVISAVSGLVDYDEAIFLWRVDKRDFSLWTITSTITLFFGIEIGVLVGVGFSLAFVIHESANPHIAVLGRLPGTTVYRNIKQYPEAYTYNGIVIVRIDSPIYFANISYIKDRLEEYEVAVDKYTNRGLEVDRINFVILEMSPVTHIDSSAVEALKELYQEYKTRDIQLAISNPNKDVHLTIARSGMVELVGKEWFFVRVHDAVQVCLQYVQSSNLEDKHLSFTRRYGGSNNNSSSSNALLKEPLLSVEK
notes: A. thaliana SULTR4;1 (NCBI NM_121358.3) with the charge-reversal mutation R550E on helix alpha1 of the STAS domain; Made by QuikChange on the wild-type construct; source: High Five insect cells, baculovirus; purified following the same protocol as wild type; not shown: His6, C-terminal, cleaved
For the molecule B4, the binding result in data set [3] is on record as “binds”.
